Results taken from US20240116985A1 (published 2024).
Starred links: 1 amine or outer side, 2 acyl side, 3 side chain; linkers in the order of their positions; H or OH if unused. Positions of bridges follow the written chain, without caps; N, C: chain ends. Non-standard residues stand in square brackets, D forms with d. Primed or numbered codes have the meaning given here. PyrS2″ = (S)-3-amino-1-((pent-4-en-1-yloxy)carbonyl)pyrrolidine-3-carboxylic acid (stapling residue), C=CCCCOC(=O)N1CC[C@@](N[*:1])(C(=O)[*:2])C1; B5(23) = 2-amino-2-(pent-4-en-1-yl)hept-6-enoic acid (2,2-bis(4-pentenyl)glycine), stitching residue, C=CCCCC(CCCC=C)(N[*:1])C(=O)[*:2]; B5(32) = 2-amino-2-(pent-4-en-1-yl)hept-6-enoic acid (bis-4-pentenylglycine, two alkene side chains), C=CCCCC(CCCC=C)(N[*:1])C(=O)[*:2]; B5(4) = 2,2-bis(4-pentenyl)glycine = 2-amino-2-(pent-4-en-1-yl)hept-6-enoic acid (stitching residue), C=CCCCC(CCCC=C)(N[*:1])C(=O)[*:2]; PyrS2 = (S)-3-amino-1-((pent-4-en-1-yloxy)carbonyl)pyrrolidine-3-carboxylic acid, C=CCCCOC(=O)N1CC[C@@](N[*:1])(C(=O)[*:2])C1; B5(19) = 2-amino-2-(pent-4-en-1-yl)hept-6-enoic acid (bis(4-pentenyl)glycine), C=CCCCC(CCCC=C)(N[*:1])C(=O)[*:2]; 3Br4FF = (S)-2-amino-3-(3-bromo-4-fluorophenyl)propanoic acid, O=C([C@H](Cc1ccc(F)c(Br)c1)N[*:1])[*:2]; 7F1NapA = 3-(7-fluoronaphthalen-1-yl)-L-alanine, O=C([C@H](Cc1cccc2ccc(F)cc12)N[*:1])[*:2]; B5(3) = 2,2-bis(4-pentenyl)glycine (stitching residue), C=CCCCC(CCCC=C)(N[*:1])C(=O)[*:2]; B5(28) = 2,2-bis(4-pentenyl)glycine, C=CCCCC(CCCC=C)(N[*:1])C(=O)[*:2]; Phe(3-CF3) = N[C@@H](Cc1cccc(C(F)(F)F)c1)C(=O)O; Phe(3-COOH) = N[C@@H](Cc1cccc(C(=O)O)c1)C(=O)O; Phe(2-CF3) = N[C@@H](Cc1ccccc1C(F)(F)F)C(=O)O; Phe(3,4-Me2) = Cc1ccc(C[C@H](N)C(=O)O)cc1C; Phe(3-F) = N[C@@H](Cc1cccc(F)c1)C(=O)O; Bta = N[C@@H](Cc1csc2ccccc12)C(=O)O; αAllylPro = C=CC[C@@]1(C(=O)O)CCCN1; tBuAla = CC(C)(C)C[C@H](N)C(=O)O; 3Thi = N[C@@H](Cc1ccsc1)C(=O)O; S8 = C=CCCCCCC[C@](C)(N)C(=O)O; PyrS2(4) = not defined here; Aib = CC(C)(N)C(=O)O

B1: I-2268 (peptide)
peptide: Ac-[αAllylPro]D[tBuAla][B5(3)]D[Phe(3-COOH)]AAFL[PyrS2(4)][3Thi][Bta]NAAAAA-NH2
modifications: staple 1-4, 4-11; reading uncertain; also: printed as Ac-PL3-Asp-Npg-B5-Asp-3COOHF-Ala-Ala-Phe-Leu-PyrS2-3Thi-BztA-Asn-Ala-Ala-Ala-Ala-Ala-NH2
B2: I-2271 (peptide)
peptide: Ac-[αAllylPro]D[tBuAla][B5(3)]D[Phe(3-COOH)]AAFL[PyrS2(4)][3Thi][Bta]NA[Aib]A-NH2
modifications: staple 1-4, 4-11; reading uncertain; also: printed as Ac-PL3-Asp-Npg-B5-Asp-3COOHF-Ala-Ala-Phe-Leu-PyrS2-3Thi-BztA-Asn-Ala-Aib-Ala-NH2
B3: I-368 (peptide)
peptide: Ac-[αAllylPro]DA[B5(19)]DDAAFV[S8]F[7F1NapA]Q-NH2
modifications: staple 1-4, 4-11
notes: Stapled peptide composition (olefin metathesis)
B4: I-362 (peptide)
peptide: Ac-[αAllylPro]DA[B5(19)]DDAAFA[S8]H[Bta]Q-NH2
modifications: staple 1-4, 4-11
notes: as for B3
B5: I-372 (peptide)
peptide: Ac-[αAllylPro]DA[B5(4)]DEAAFA[S8][Phe(3-F)][Bta]Q-NH2
modifications: staple 1-4, 4-11
notes: as for B3
B6: I-374 (peptide)
peptide: Ac-[αAllylPro]DA[B5(4)]DDAA[Phe(3-CF3)]A[S8]F[Bta]Q-NH2
modifications: staple 1-4, 4-11; not fully specified; printed as Ac-PL3-Asp-Ala-B5-Asp-Asp-Ala-Ala-3F3MeF-Ala-S8-Phe-BztA-Gln-NH2
notes: Stapled peptide
B7: I-371 (peptide)
peptide: Ac-[αAllylPro]DA[B5(19)]DDAAFA[S8][Phe(3-F)][Bta]Q-NH2
modifications: staple 1-4, 4-11
notes: as for B3

molecular target: T1, B-cat-Halo (UniProt P35222 1-781); test: cell-based or functional assay
T1 sequence (looked up): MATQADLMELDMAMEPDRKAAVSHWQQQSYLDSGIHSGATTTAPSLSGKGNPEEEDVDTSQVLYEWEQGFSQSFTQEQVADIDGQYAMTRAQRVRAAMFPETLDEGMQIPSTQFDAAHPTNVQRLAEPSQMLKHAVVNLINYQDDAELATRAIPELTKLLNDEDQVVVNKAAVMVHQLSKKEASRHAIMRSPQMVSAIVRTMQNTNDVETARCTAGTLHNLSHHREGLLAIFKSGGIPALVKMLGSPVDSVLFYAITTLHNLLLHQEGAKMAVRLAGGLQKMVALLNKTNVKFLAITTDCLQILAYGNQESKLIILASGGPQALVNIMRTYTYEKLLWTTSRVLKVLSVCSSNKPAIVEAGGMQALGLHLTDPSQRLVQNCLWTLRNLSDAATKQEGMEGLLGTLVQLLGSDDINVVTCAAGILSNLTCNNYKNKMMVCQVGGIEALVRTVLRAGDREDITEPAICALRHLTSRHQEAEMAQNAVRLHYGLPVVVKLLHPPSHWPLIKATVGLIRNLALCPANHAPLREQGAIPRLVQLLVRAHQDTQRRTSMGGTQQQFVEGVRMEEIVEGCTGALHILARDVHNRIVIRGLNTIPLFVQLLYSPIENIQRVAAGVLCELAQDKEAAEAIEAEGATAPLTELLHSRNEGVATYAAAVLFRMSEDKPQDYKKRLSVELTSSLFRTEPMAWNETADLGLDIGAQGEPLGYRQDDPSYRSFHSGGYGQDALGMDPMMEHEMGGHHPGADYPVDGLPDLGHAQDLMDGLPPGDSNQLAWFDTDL

Binder	NanoBRET Abs IC50 [µM]
Ac-[αAllylPro]D[tBuAla][B5(4)]D[Phe(3-COOH)]QAFV[PyrS2][3Thi][3Br4FF]A-NH2 (staple 1-4, 4-11) [I-2288]	6.7
B1	3.1
Ac-[αAllylPro]D[tBuAla][B5(4)]D[Phe(3-COOH)]AAFL[PyrS2][3Thi][3Br4FF]Q-NH2 (staple 1-4, 4-11) [I-2287]	7.1
Ac-[αAllylPro]D[tBuAla][B5(28)]D[Phe(3-COOH)]QAFV[PyrS2][3Thi][34MeF]A-NH2 (staple 1-4, 4-11) [I-2292]	2.7
Ac-[αAllylPro]D[tBuAla][B5(4)]D[Phe(3-COOH)]AAFL[PyrS2][3Thi][Phe(3,4-Me2)]Q-NH2 (staple 1-4, 4-11) [I-2291]	4.9
Ac-[αAllylPro]D[tBuAla][B5(4)]D[Phe(3-COOH)]AAFL[PyrS2][3Thi][Bta]NALALALA-NH2 (staple 1-4, 4-11; also: later eluting staple isomer) [I-2284]	12.9
Ac-[αAllylPro]D[tBuAla][B5(32)]D[Phe(3-COOH)]AAFL[PyrS2][3Thi][Bta]NALL-NH2 (staple 1-4, 4-11; also: earlier eluting staple isomer) [I-2277]	2.3
Ac-[αAllylPro]D[tBuAla][B5(4)]D[Phe(3-COOH)]AAFL[PyrS2][3Thi][Bta]NALALA-NH2 (staple 1-4, 4-11; also: later eluting staple isomer) [I-2282]	3.7
Ac-[αAllylPro]D[tBuAla][B5(3)]D[Phe(3-COOH)]AAFL[PyrS2″][3Thi][Bta]NA[Aib]A[Aib]A-NH2 (staple 1-4, 4-11) [I-2272]	3
Ac-[αAllylPro]D[tBuAla][B5(3)]D[Phe(3-COOH)]AAFL[PyrS2″][3Thi][Bta]NA[Aib]A[Aib]A[Aib]A-NH2 (staple 1-4, 4-11) [I-2273]	6.2
Ac-[αAllylPro]D[tBuAla][B5(3)]D[Phe(3-COOH)]AAFL[PyrS2″][3Thi][Bta]NL-NH2 (staple 1-4, 4-11) [I-2274]	2
Ac-[αAllylPro]D[tBuAla][B5(4)]D[Phe(3-COOH)]AAFL[PyrS2][3Thi][Bta]NALALA-NH2 (staple 1-4, 4-11; also: earlier eluting staple isomer) [I-2281]	4.3
Ac-[αAllylPro]D[tBuAla][B5(4)]D[Phe(3-COOH)]AAFL[PyrS2][Phe(2-CF3)][Phe(3,4-Me2)]S-NH2 (staple 1-4, 4-11) [I-2293]	5.7
Ac-[αAllylPro]D[tBuAla][B5(4)]D[Phe(3-COOH)]QAFL[PyrS2][Phe(2-CF3)][3Br4FF]A-NH2 (staple 1-4, 4-11) [I-2290]	7.9
Ac-[αAllylPro]D[tBuAla][B5(32)]D[Phe(3-COOH)]AAFL[PyrS2][3Thi][Bta]NALL-NH2 (staple 1-4, 4-11; also: later eluting staple isomer) [I-2278]	2.8
Ac-[αAllylPro]D[tBuAla][B5(4)]D[Phe(3-COOH)]AAFL[PyrS2][Phe(2-CF3)][3Br4FF]S-NH2 (staple 1-4, 4-11) [I-2289]	9
Ac-[αAllylPro]D[tBuAla][B5(32)]D[Phe(3-COOH)]AAFL[PyrS2][3Thi][Bta]NLLL-NH2 (staple 1-4, 4-11; also: earlier eluting staple isomer (HPLC peak)) [I-2275]	3.5
Ac-[αAllylPro]D[tBuAla][B5(3)]D[Phe(3-COOH)]AAFL[PyrS2″][3Thi][Bta]NAAAAAAA-NH2 (staple 1-4, 4-11) [I-2269]	2.3
Ac-[αAllylPro]D[tBuAla][B5(32)]D[Phe(3-COOH)]AAFL[PyrS2][3Thi][Bta]NLLLLL-NH2 (staple 1-4, 4-11; also: earlier eluting staple isomer) [I-2279]	> 20
B2	2.3
Ac-[αAllylPro]D[tBuAla][B5(4)]D[Phe(3-COOH)]AAFL[PyrS2][3Thi][Bta]NALALALA-NH2 (staple 1-4, 4-11; also: earlier eluting staple isomer) [I-2283]	4.5

molecular target: T2, B-cat-Halo (beta-catenin HaloTag NanoBRET construct expressed in HEK293 cells) (UniProt P35222 1-781); test: cell-based or functional assay
T2 sequence (looked up): T1 sequence (looked up)

Binder	NanoBRET Abs IC50 [µM]
Ac-[αAllylPro]D[tBuAla][B5(23)]NNAAFN[PyrS2][3Thi][Bta]Q-NH2 (staple 1-4, 4-11) [I-1555]	29.3

molecular target: T3, full-length beta-Catenin (Uniprot ID P35222) (Homo sapiens (Human), UniProt P35222 1-781); test: fluorescence polarization competition; 10 nM full-length beta-catenin, competitor 10 nM 5FAM-TCF4(10-53)
T3 construct: also called bCat; B-Catenin
T3 sequence: T1 sequence (looked up)
Experimental: The plate was incubated protected from light for 60 minutes at 20° C. prior to read. Reads were performed on a CLARIOstar plate reader (BMG Labtech) in duplicate, and data were fitted to a 1:1 binding model with hill slope using an in-house script. All provided concentrations are final concentrations.

Binder	EC50 [µM]
B3	5
Ac-[αAllylPro]DA[B5(19)]DDAAHA[S8]F[Bta]Q-NH2 (staple 1-4, 4-11; also: earlier eluting HPLC staple isomer, Stapled peptide) [I-363]	5
Ac-[αAllylPro]DA[B5(19)]DDAAHA[S8]F[Bta]Q-NH2 (staple 1-4, 4-11; also: later eluting HPLC staple isomer, Stapled peptide) [I-364]	5
B4	3.66
B5	2.09
B6	3.01
B7	1.39
